Data on 17 molecules can be found in patent US20160009806A1 (Seagen, published 2016).

B1: humanized 15H3 antibody HRLC (antibody, V domains shown)
VH: QVQLVQSGAEVKKPGASVKVSCKASGYSFSGYFMNWVRQAPGQGLEWMGLINPYNGDSFYNQKFKGRVTMTRDTSSSTAYMELSSLRSEDTAVYYCARGLRRDFDYWGQGTLVTVSS
VL: DVVMTQSPLSLPVTLGQPASISCKSSQSLLDSDGKTYLNWLFQRPGQSPRRLIYLVSELDSGVPDRFSGSGSGTDFTLKISRVEAEDVGVYYCWQGTHFPRTFGGGTKLEIKR
B2: humanized 15H3 antibody HNLG (antibody, V domains shown)
VH: QVQLVQSGAEVKKPGASVKVSCKASGYSFSGYFMNWVRQAPGQGLEWMGLINPYNGDSFYNQKFKGRVTMTRQTSTSTVYMELSSLRSEDTAVYYCARGLRRDFDYWGQGTLVTVSS
VL: DVVLTQSPLSLPVTLGQPASISCKSSQSLLDSDGKTYLNWLFQRPGQSPRRLIYLVSELDSGVPDRFSGSGSGTDFTLKISRVEAEDVGVYYCWQGTHFPRTFGGGTKLEIKR
B3: humanized 15H3 antibody HMLC (antibody, V domains shown)
VH: QVQLVQSGAEVKKPGASVKVSCKASGYSFSGYFMNWVRQAPGQGLEWMGLINPYNGDSFYNQKFKGRVTMTRQKSSSTAYMELSSLRSEDTAVYYCARGLRRDFDYWGQGTLVTVSS
VL: DVVMTQSPLSLPVTLGQPASISCKSSQSLLDSDGKTYLNWLFQRPGQSPRRLIYLVSELDSGVPDRFSGSGSGTDFTLKISRVEAEDVGVYYCWQGTHFPRTFGGGTKLEIKR
B4: humanized 15H3 antibody HLLC (antibody, V domains shown)
VH: QVQLVQSGAEVKKPGASVKVSCKASGYSFSGYFMNWVRQAPGQGLEWMGLINPYNGDSFYNQKFKGRVTMTRDKSSSTAYMELSSLRSEDTAVYYCARGLRRDFDYWGQGTLVTVSS
VL: DVVMTQSPLSLPVTLGQPASISCKSSQSLLDSDGKTYLNWLFQRPGQSPRRLIYLVSELDSGVPDRFSGSGSGTDFTLKISRVEAEDVGVYYCWQGTHFPRTFGGGTKLEIKR
notes: also called h15H3-2
B5: humanized 15H3 antibody HRLG (antibody, V domains shown)
VH: QVQLVQSGAEVKKPGASVKVSCKASGYSFSGYFMNWVRQAPGQGLEWMGLINPYNGDSFYNQKFKGRVTMTRDTSSSTAYMELSSLRSEDTAVYYCARGLRRDFDYWGQGTLVTVSS
VL: DVVLTQSPLSLPVTLGQPASISCKSSQSLLDSDGKTYLNWLFQRPGQSPRRLIYLVSELDSGVPDRFSGSGSGTDFTLKISRVEAEDVGVYYCWQGTHFPRTFGGGTKLEIKR
B6: humanized 15H3 antibody HSLC (antibody, V domains shown)
VH: QVQLVQSGAEVKKPGASVKVSCKASGYSFSGYFMNWVRQAPGQGLEWMGLINPYNGDSFYNQKFKGRVTMTRQTSSSTAYMELSSLRSEDTAVYYCARGLRRDFDYWGQGTLVTVSS
VL: DVVMTQSPLSLPVTLGQPASISCKSSQSLLDSDGKTYLNWLFQRPGQSPRRLIYLVSELDSGVPDRFSGSGSGTDFTLKISRVEAEDVGVYYCWQGTHFPRTFGGGTKLEIKR
B7: humanized 15H3 antibody HNLC (antibody, V domains shown)
VH: QVQLVQSGAEVKKPGASVKVSCKASGYSFSGYFMNWVRQAPGQGLEWMGLINPYNGDSFYNQKFKGRVTMTRQTSTSTVYMELSSLRSEDTAVYYCARGLRRDFDYWGQGTLVTVSS
VL: DVVMTQSPLSLPVTLGQPASISCKSSQSLLDSDGKTYLNWLFQRPGQSPRRLIYLVSELDSGVPDRFSGSGSGTDFTLKISRVEAEDVGVYYCWQGTHFPRTFGGGTKLEIKR
B8: humanized 15H3 antibody HLLG (antibody, V domains shown)
VH: QVQLVQSGAEVKKPGASVKVSCKASGYSFSGYFMNWVRQAPGQGLEWMGLINPYNGDSFYNQKFKGRVTMTRDKSSSTAYMELSSLRSEDTAVYYCARGLRRDFDYWGQGTLVTVSS
VL: DVVLTQSPLSLPVTLGQPASISCKSSQSLLDSDGKTYLNWLFQRPGQSPRRLIYLVSELDSGVPDRFSGSGSGTDFTLKISRVEAEDVGVYYCWQGTHFPRTFGGGTKLEIKR
B9: humanized 15H3 antibody HULC (antibody, V domains shown)
VH: QVQLVQSGAEVKKPGASVKVSCKASGYSFSGYFMNWVRQAPGQGLEWMGLINPYNGDSFYNQKFKGRVTMTRQKSSSTAYMELSSLRSEDTAVYYCVRGLRRDFDYWGQGTLVTVSS
VL: DVVMTQSPLSLPVTLGQPASISCKSSQSLLDSDGKTYLNWLFQRPGQSPRRLIYLVSELDSGVPDRFSGSGSGTDFTLKISRVEAEDVGVYYCWQGTHFPRTFGGGTKLEIKR
B10: humanized 15H3 antibody HMLG (antibody, V domains shown)
VH: QVQLVQSGAEVKKPGASVKVSCKASGYSFSGYFMNWVRQAPGQGLEWMGLINPYNGDSFYNQKFKGRVTMTRQKSSSTAYMELSSLRSEDTAVYYCARGLRRDFDYWGQGTLVTVSS
VL: DVVLTQSPLSLPVTLGQPASISCKSSQSLLDSDGKTYLNWLFQRPGQSPRRLIYLVSELDSGVPDRFSGSGSGTDFTLKISRVEAEDVGVYYCWQGTHFPRTFGGGTKLEIKR
B11: humanized 15H3 antibody HBLA (antibody, V domains shown)
VH: QVQLVQSGAEVKKPGASVKVSCKASGYSFSGYFMNWVRQAPGQGLEWMGLINPYNGDSFYNQKFKGRVTMTRDTSTSTVYMELSSLRSEDTAVYYCARGLRRDFDYWGQGTLVTVSS
VL: DVVMTQSPLSLPVTLGQPASISCKSSQSLLDSDGKTYLNWFQQRPGQSPRRLIYLVSELDSGVPDRFSGSGSGTDFTLKISRVEAEDVGVYYCWQGTHFPRTFGGGTKLEIKR
notes: HB heavy chain with LA light chain of the first humanization round
B12: humanized 15H3 antibody HBLD (antibody, V domains shown)
VH: QVQLVQSGAEVKKPGASVKVSCKASGYSFSGYFMNWVRQAPGQGLEWMGLINPYNGDSFYNQKFKGRVTMTRDTSTSTVYMELSSLRSEDTAVYYCARGLRRDFDYWGQGTLVTVSS
VL: DVVMTQSPLSLPVTLGQPASISCKSSQSLLDSDGKTYLNWFQQRPGQSPKRLIYLVSELDSGVPDRFSGSGSGTDFTLKISRVEAEDVGVYYCWQGTHFPRTFGGGTKLEIKR
notes: HB heavy chain with LD light chain of the first humanization round
B13: humanized 15H3 antibody HBLE (antibody, V domains shown)
VH: QVQLVQSGAEVKKPGASVKVSCKASGYSFSGYFMNWVRQAPGQGLEWMGLINPYNGDSFYNQKFKGRVTMTRDTSTSTVYMELSSLRSEDTAVYYCARGLRRDFDYWGQGTLVTVSS
VL: DVVMTQSPLSLPVTLGQPASISCKSSQSLLDSDGKTYLNWFQQRPGQSPRRLIYLVSELDSGVPDRFTGSGSGTDFTLKISRVEAEDVGVYYCWQGTHFPRTFGGGTKLEIKR
notes: HB heavy chain with LE light chain of the first humanization round
B14: humanized 15H3 antibody HBLB (antibody, V domains shown)
VH: QVQLVQSGAEVKKPGASVKVSCKASGYSFSGYFMNWVRQAPGQGLEWMGLINPYNGDSFYNQKFKGRVTMTRDTSTSTVYMELSSLRSEDTAVYYCARGLRRDFDYWGQGTLVTVSS
VL: DVVMTQSPLSLPVTLGQPASLFCKSSQSLLDSDGKTYLNWFQQRPGQSPRRLIYLVSELDSGVPDRFSGSGSGTDFTLKISRVEAEDVGVYYCWQGTHFPRTFGGGTKLEIKR
notes: HB heavy chain with LB light chain of the first humanization round
B15: humanized 15H3 antibody HBLF (antibody, V domains shown)
VH: QVQLVQSGAEVKKPGASVKVSCKASGYSFSGYFMNWVRQAPGQGLEWMGLINPYNGDSFYNQKFKGRVTMTRDTSTSTVYMELSSLRSEDTAVYYCARGLRRDFDYWGQGTLVTVSS
VL: DVVMTQSPLSLPVTLGQPASLFCKSSQSLLDSDGKTYLNWLFQRPGQSPKRLIYLVSELDSGVPDRFTGSGSGTDFTLKISRVEAEDVGVYYCWQGTHFPRTFGGGTKLEIKR
notes: HB heavy chain with LF light chain of the first humanization round
B16: murine 15H3 antibody conjugated with vcMMAE (antibody, V domains shown)
VH: EVQLQQSGPELVKPGASVKISCKASGYSFSGYFMNWVKQSHGQSLEWIGLINPYNGDSFYNQKFKGKATLTVQKSSSTAHMELQSLTSEDSAVFYCVRGLRRDFDYWGQGTPLTVSS
VL: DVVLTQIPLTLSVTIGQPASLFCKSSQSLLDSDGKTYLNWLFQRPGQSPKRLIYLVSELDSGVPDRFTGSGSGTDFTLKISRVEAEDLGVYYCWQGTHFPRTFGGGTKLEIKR
modifications: vcMMAE drug-linker conjugated to the antibody (site and loading not stated for the murine ADC)
B17: murine 15H3 antibody conjugated with mcMMAF (antibody, V domains shown)
VH: EVQLQQSGPELVKPGASVKISCKASGYSFSGYFMNWVKQSHGQSLEWIGLINPYNGDSFYNQKFKGKATLTVQKSSSTAHMELQSLTSEDSAVFYCVRGLRRDFDYWGQGTPLTVSS
VL: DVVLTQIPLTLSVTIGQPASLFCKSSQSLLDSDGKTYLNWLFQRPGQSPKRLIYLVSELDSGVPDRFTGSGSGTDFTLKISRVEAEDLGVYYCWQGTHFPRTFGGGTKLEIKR
modifications: mcMMAF drug-linker conjugated to the antibody (site and loading not stated for the murine ADC)

T1 sequence (P06756 31-1048, chain 1 of 2): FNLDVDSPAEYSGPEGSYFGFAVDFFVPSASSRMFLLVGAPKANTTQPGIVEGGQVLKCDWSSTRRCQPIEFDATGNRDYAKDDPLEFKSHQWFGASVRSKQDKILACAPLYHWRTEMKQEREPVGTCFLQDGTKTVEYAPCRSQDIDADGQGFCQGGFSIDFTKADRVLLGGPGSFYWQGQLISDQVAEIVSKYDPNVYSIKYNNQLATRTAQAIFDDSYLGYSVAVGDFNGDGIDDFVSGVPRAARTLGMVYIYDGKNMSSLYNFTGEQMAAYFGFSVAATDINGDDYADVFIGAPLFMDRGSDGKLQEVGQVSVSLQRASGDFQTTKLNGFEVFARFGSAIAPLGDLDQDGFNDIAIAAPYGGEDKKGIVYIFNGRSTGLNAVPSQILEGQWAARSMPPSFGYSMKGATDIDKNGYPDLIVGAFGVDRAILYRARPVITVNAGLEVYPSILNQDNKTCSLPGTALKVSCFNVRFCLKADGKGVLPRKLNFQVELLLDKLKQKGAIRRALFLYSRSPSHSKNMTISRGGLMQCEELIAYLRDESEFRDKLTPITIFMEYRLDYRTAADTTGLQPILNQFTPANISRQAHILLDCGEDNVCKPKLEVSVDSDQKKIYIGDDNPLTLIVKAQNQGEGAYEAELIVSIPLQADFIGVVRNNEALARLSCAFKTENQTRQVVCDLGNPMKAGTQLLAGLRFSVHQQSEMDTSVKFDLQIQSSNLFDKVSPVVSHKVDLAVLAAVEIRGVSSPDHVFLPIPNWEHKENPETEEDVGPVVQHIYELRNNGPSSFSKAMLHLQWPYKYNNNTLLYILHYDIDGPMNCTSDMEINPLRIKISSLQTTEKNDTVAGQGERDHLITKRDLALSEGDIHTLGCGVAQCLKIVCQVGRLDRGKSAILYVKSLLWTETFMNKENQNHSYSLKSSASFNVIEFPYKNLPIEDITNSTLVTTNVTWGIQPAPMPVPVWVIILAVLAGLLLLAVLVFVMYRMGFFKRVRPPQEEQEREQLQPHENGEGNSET
T1 sequence (P18564 22-788, chain 2 of 2): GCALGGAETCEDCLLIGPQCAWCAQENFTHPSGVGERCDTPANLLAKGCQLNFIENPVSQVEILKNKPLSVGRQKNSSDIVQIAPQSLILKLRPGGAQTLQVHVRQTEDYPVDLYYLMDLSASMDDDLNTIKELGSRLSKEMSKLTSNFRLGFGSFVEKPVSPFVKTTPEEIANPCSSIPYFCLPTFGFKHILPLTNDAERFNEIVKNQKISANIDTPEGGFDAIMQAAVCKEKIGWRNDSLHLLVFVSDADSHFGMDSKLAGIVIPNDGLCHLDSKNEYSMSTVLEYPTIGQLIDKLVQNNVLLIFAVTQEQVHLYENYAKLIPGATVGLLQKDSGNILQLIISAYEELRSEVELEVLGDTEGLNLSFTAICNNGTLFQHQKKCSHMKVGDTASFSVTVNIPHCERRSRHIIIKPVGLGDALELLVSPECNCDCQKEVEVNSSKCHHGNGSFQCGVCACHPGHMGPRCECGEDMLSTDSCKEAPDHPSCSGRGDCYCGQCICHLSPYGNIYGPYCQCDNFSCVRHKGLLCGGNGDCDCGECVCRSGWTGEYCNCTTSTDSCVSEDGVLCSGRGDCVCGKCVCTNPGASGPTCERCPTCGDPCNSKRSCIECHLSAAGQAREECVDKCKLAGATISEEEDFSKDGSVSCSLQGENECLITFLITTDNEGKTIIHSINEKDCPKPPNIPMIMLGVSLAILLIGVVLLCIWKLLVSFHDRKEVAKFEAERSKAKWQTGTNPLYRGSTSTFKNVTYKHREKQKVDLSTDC

One test concerns the target T1, human integrin αvβ6 on cells (human, UniProt P06756 31-1048; P18564 22-788).
T1 construct: whole, on cells; also called HEK293F:huβ6
As to the kind of experiment: competition binding, flow cytometry on 293F cells expressing αvβ6; competitor 2 nM AlexaFluor-647 m15H3. As for the experimental part:
(§1) 1×10⁵ antigen expressing cells were aliquoted in each well of a 96-well v-bottom plate on ice. […] Cells were pelleted and washed 3 times with PBS. The cells were pelleted and resuspended in 125 uL of PBS/BSA. Fluorescence was analyzed by flow cytometery, using percent of saturated fluorescent signal to determine percent labeled murine 15H3 bound and to subsequently extrapolate the EC50 by fitting the data to a sigmoidal dose-response curve with variable slope.
A general note: Flow cytometry measures light scatter and fluorescence of single cells or particles in a stream.
In general, EC50 refers to the concentration at which the effect is half-maximal. Low readings indicate greater potency, high ones weaker potency. As to B1, the 50% effective concentration (EC50) is 26.7 nM.

Molecule B2 displayed a 50% effective concentration (EC50) of 3.16 nM.

With B3, a half-maximal response (EC50) required 0.49 nM.

B4 returned an EC50 of 0.74 nM.

B5 showed an EC50 of 23.9 nM.

With B6, the EC50 amounted to 32.5 nM.

Consider B7, for which the EC50 stood at 11.1 nM.

As for B8, the response was half-maximal at 0.97 nM (EC50).

Regarding B9, the midpoint of the response, the EC50, lay at 0.93 nM.

Regarding B10, the concentration giving a half-maximal response (EC50) is 1.07 nM.

The target of another test is T1, human integrin αvβ6 on cells. The test is described as follows: competition binding on 293F cells expressing human αvβ6 (FIG. 2). The procedure:
as §1
In the case of B11, the binding result is “binds”.

In the case of B12, the binding result is listed as “binds”.

Regarding B13, the binding result is “binds”.

Take B14: the binding result is given as “binds”.

Regarding B15, the binding result is recorded as “binds”.

For another test the target is unchanged. As to the kind of experiment: cell-based or functional assay.
In the case of B16, the “IC50 (ng/ml), cytotoxicity assay on 5637 cells (36 x10^3 αvβ6 copies/cell)” value was over 1000 ng/mL; the “IC50 (ng/ml), cytotoxicity assay on BxPC3 cells (37 x10^3 αvβ6 copies/cell)” value worked out at 34 ng/mL; the “IC50 (ng/ml), cytotoxicity assay on Capan-1 cells (19 x10^3 αvβ6 copies/cell)” value amounted to 365 ng/mL; the “IC50 (ng/ml), cytotoxicity assay on HPAFII cells (22 x10^3 αvβ6 copies/cell)” value came to 76 ng/mL. In addition, the “IC50 (ng/ml), cytotoxicity assay on HupT4 cells (184 x10^3 αvβ6 copies/cell)” value is 35 ng/mL; the “IC50 (ng/ml), cytotoxicity assay on Panc08.13 cells (137 x10^3 αvβ6 copies/cell)” value is 93 ng/mL; the “IC50 (ng/ml), cytotoxicity assay on RT4 cells (42 x10^3 αvβ6 copies/cell)” value is over 1000 ng/mL; the “IC50 (ng/ml), cytotoxicity assay on SW780 cells (80 x10^3 αvβ6 copies/cell)” value came out at 614 ng/mL.

On to B17, for which the “IC50 (ng/ml), cytotoxicity assay on 5637 cells (36 x10^3 αvβ6 copies/cell)” value is over 1000 ng/mL; the “IC50 (ng/ml), cytotoxicity assay on BxPC3 cells (37 x10^3 αvβ6 copies/cell)” value worked out at 7 ng/mL; the “IC50 (ng/ml), cytotoxicity assay on Capan-1 cells (19 x10^3 αvβ6 copies/cell)” value amounted to 1510 ng/mL; the “IC50 (ng/ml), cytotoxicity assay on HPAFII cells (22 x10^3 αvβ6 copies/cell)” value was over 2000 ng/mL. In addition, the “IC50 (ng/ml), cytotoxicity assay on HupT4 cells (184 x10^3 αvβ6 copies/cell)” value was determined as 16 ng/mL; the “IC50 (ng/ml), cytotoxicity assay on Panc08.13 cells (137 x10^3 αvβ6 copies/cell)” value was found to be 1400 ng/mL; the “IC50 (ng/ml), cytotoxicity assay on RT4 cells (42 x10^3 αvβ6 copies/cell)” value is over 1000 ng/mL; the “IC50 (ng/ml), cytotoxicity assay on SW780 cells (80 x10^3 αvβ6 copies/cell)” value was 86 ng/mL.
